B1: Programmed cell death 6-interacting protein (Homo sapiens), Q8WUM4 (parent)
chain: MATFISVQLKKTSEVDLAKPLVKFIQQTYPSGGEEQAQYCRAAEELSKLRRAAVGRPLDKHEGALETLLRYYDQICSIEPKFPFSENQICLTFTWKDAFDKGSLFGGSVKLALASLGYEKSCVLFNCAALASQIAAEQNLDNDEGLKIAAKHYQFASGAFLHIKETVLSALSREPTVDISPDTVGTLSLIMLAQAQEVFFLKATRDKMKDAIIAKLANQAADYFGDAFKQCQYKDTLPKEVFPVLAAKHCIMQANAEYHQSILAKQQKKFGEEIARLQHAAELIKTVASRYDEYVNVKDFSDKINRALAAAKKDNDFIYHDRVPDLKDLDPIGKATLVKSTPVNVPISQKFTDLFEKMVPVSVQQSLAAYNQRKADLVNRSIAQMREATTLANGVLASLNLPAAIEDVSGDTVPQSILTKSRSVIEQGGIQTVDQLIKELPELLQRNREILDESLRLLDEEEATDNDLRAKFKERWQRTPSNELYKPLRAEGTNFRTVLDKAVQADGQVKECYQSHRDTIVLLCKPEPELNAAIPSANPAKTMQGSEVVNVLKSLLSNLDEVKKEREGLENDLKSVNFDMTSKFLTALAQDGVINEEALSVTELDRVYGGLTTKVQESLKKQEGLLKNIQVSHQEFSKMKQSNNEANLREEVLKNLATAYDNFVELVANLKEGTKFYNELTEILVRFQNKCSDIVFARKTERDELLKDLQQSIAREPSAPSIPTPAYQSSPAGGHAPTPPTPAPRTMPPTKPQPPARPPPPVLPANRAPSATAPSPVGAGTAAPAPSQTPGSAPPPQAQGPPYPTYPGYPGYCQMPMPMGYNPYAYGQYNMPYPPVYHQSPGQAPYPGPQQPSYPFPQPPQQSYYPQQ
B2: Programmed cell death protein 6 (Homo sapiens), O75340 (parent)
chain: MAAYSYRPGPGAGPGPAAGAALPDQSFLWNVFQRVDKDRSGVISDTELQQALSNGTWTPFNPVTVRSIISMFDRENKAGVNFSEFTGVWKYITDWQNVFRTYDRDNSGMIDKNELKQALSGFGYRLSDQFHDILIRKFDRQGRGQIAFDDFIQGCIVLQRLTDIFRRYDTDQDGWIQVSYEQYLSMVFSIV
B3: Programmed cell death 6-interacting protein (Homo sapiens), Q8WUM4 (parent)
chain: B1 chain
partner: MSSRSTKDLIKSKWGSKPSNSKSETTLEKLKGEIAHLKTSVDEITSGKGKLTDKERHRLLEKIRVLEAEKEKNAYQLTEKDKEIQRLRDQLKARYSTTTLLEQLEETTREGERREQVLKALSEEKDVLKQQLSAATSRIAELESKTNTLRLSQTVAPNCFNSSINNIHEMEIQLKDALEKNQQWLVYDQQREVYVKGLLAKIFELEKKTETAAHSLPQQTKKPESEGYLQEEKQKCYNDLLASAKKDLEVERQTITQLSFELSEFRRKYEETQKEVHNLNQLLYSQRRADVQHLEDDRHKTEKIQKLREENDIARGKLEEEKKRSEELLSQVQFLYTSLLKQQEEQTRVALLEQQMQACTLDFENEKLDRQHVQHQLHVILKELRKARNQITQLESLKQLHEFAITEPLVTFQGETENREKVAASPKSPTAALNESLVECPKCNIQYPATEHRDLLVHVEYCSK

Variants of: B1
Settings: with pdcd6_human PDCD6, O75340

**Q.** P804A was tested. Which “effect of a mutation on the interaction” value did it give?
**A.** The value was “disrupting interaction”.

**Q.** Which “effect of a mutation on the interaction” value does the source give for P802A here?
**A.** The value was “disrupting interaction”.

**Q.** Which “effect of a mutation on the interaction” value does the source give for Y803A here?
**A.** The value was “disrupting interaction”.

Variants of: B1
Settings: with pdcd6_human PDCD6, O75340
Remark: another data set of the same source

**Q.** With P804A as the variant, how does the “effect of a mutation on the interaction” value read?
**A.** Its value is “decreasing interaction”.

**Q.** Which “effect of a mutation on the interaction” value does the source give for P802A here?
**A.** The value was “decreasing interaction”.

**Q.** Which “effect of a mutation on the interaction” value does the source give for Y803A here?
**A.** The value was “decreasing interaction”.

Variants of: B2
Settings: with pdc6i_human PDCD6IP

**Q.** Which “effect of a mutation on the interaction” value does the source give for Y180A here?
**A.** Its value is “disrupting interaction”.

**Q.** With D169A as the variant, how does the “effect of a mutation on the interaction” value read?
**A.** Its value is “disrupting interaction”.

**Q.** R125A was tested. Which “effect of a mutation on the interaction” value did it give?
**A.** Its value is “disrupting interaction”.

**Q.** W95A was tested. Which “effect of a mutation on the interaction” value did it give?
**A.** Its value is “disrupting interaction”.

**Q.** Y91A was tested. Which “effect of a mutation on the interaction” value did it give?
**A.** The value was “disrupting interaction”.

**Q.** For Y124A, which “effect of a mutation on the interaction” value is on record?
**A.** The value was “disrupting interaction”.

Variants of: B3
Settings: with cep55_human CEP55, Q53EZ4

**Q.** P802A was tested. Which “effect of a mutation on the interaction” value did it give?
**A.** The value was “disrupting interaction”.

Reference: IntAct's records for PubMed 18940611
